Source: PMC3480499, “Isolation of Reovirus T3D Mutants Capable of Infecting Human Tumor Cells Independent of Junction Adhesion Molecule-A” (PLoS ONE, 2012)
Positions count from the first letter of the chain named. Names may count otherwise.

B1: reovirus type 3 Dearing (T3D) spike protein σ1, wild type (natural protein)
chain: MDPRLREEVVRLIIALTSDNGASLSKGLESRVSALEKTSQIHSDTILRITQGLDDANKRIIALEQSRDDLVASVSDAQLAISRLESSIGALQTVVNGLDSSVTQLGARVGQLETGLAELRVDHDNLVARVDTAERNIGSLTTELSTLTLRVTSIQADFESRISTLERTAVTSAGAPLSIRNNRMTMGLNDGLTLSGNNLAIRLPGNTGLNIQNGGLQFRFNTDQFQIVNNNLTLKTTVFDSINSRIGATEQSYVASAVTPLRLNSSTKVLDMLIDSSTLEINSSGQLTVRSTSPNLRYPIADVSGGIGMSPNYRFRQSMWIGIVSYSGSGLNWRVQVNSDIFIVDDYIHICLPAFDGFSIADGGDLSLNFVTGLLPPLLTGDTEPAFHNDVVTYGAQTVAIGLSSGGAPQYMSKNLWVEQWQDGVLRLRVEGGGSITHSNSKWPAMTVSYPRSFT
modifications: [35S]-methionine labelled
notes: a stop codon was introduced behind the S1 ORF so that the Myc-His tag of the vector is absent; also called wt σ1; wt T3D σ1
B2: reovirus T3D spike protein σ1 with the Q336R substitution (natural protein)
chain: B1 chain with Q336R
modifications: [35S]-methionine labelled
notes: Outer capsid (attachment/spike) protein σ1 of mammalian reovirus type 3 Dearing, S1 ORF without tag, with Q336R made by mutation PCR on pDGC-S1delTag; Q336R arose spontaneously in the jin-1 and jin-2 viruses; Carries only Q336R, not T193M of jin-1 or G187R of jin-2; Parent plasmid as for m1; also called σ1-Q336R; S1Q336R
B3: reovirus T3D spike protein σ1 with the Y313A substitution (natural protein)
chain: B1 chain with Y313A
modifications: [35S]-methionine labelled
notes: Outer capsid (attachment/spike) protein σ1 of mammalian reovirus type 3 Dearing, S1 ORF without tag, with Y313A made by mutation PCR on pDGC-S1delTag; Forms only intermediate trimers (shaft trimerized, head monomeric), no mature trimers; Parent plasmid as for m1; also called σ1-Y313A; S1Y313A

Biological target: the molecule itself
Test: in vitro trimerization assay (mild SDS-PAGE at 4°C); [35S]-methionine labelled in vitro transcription-translation products incubated in sample buffer (2% SDS, 2.5% β-mercaptoethanol) 30 min at 37°C (or boiled 5 min to disrupt trimers), run on a 10% SDS-polyacrylamide gel kept at 4°C, autoradiography

Row | Protein | stoichiometry N
1 | B1 | 3
2 | B2 | 3
3 | B3 | 3
